First the molecules themselves.
B1: Eukaryotic translation initiation factor 5 (Saccharomyces cerevisiae), P38431 (parent)
chain: MSINICRDNHDPFYRYKMPPIQAKVEGRGNGIKTAVLNVADISHALNRPAPYIVKYFGFELGAQTSISVDKDRYLVNGVHEPAKLQDVLDGFINKFVLCGSCKNPETEIIITKDNDLVRDCKACGKRTPMDLRHKLSSFILKNPPDSVSGSKKKKKAATASANVRGGGLSISDIAQGKSQNAPSDGTGSSTPQHHDEDEDELSRQIKAAASTLEDIEVKDDEWAVDMSEEAIRARAKELEVNSELTQLDEYGEWILEQAGEDKENLPSDVELYKKAAELDVLNDPKIGCVLAQCLFDEDIVNEIAEHNAFFTKILVTPEYEKNFMGGIERFLGLEHKDLIPLLPKILVQLYNNDIISEEEIMRFGTKSSKKFVPKEVSKKVRRAAKPFITWLETAESDDDEEDDE
partner: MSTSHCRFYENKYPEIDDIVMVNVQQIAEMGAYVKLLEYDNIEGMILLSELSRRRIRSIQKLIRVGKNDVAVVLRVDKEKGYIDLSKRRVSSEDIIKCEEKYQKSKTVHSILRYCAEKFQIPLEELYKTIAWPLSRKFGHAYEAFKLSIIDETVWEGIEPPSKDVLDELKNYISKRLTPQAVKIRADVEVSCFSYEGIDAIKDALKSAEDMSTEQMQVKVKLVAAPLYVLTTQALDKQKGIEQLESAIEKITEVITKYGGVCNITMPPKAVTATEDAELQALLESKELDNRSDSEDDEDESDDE
B2: Eukaryotic translation initiation factor 5 (Saccharomyces cerevisiae), P38431 (parent)
chain: B1 chain

The variants in one test derive from B1. Particulars: with if2a_yeast SUI2, P20459.
Take MSINICRDNHDPFYRYKMPPIQAKVEGRGNGIKTAVLNVADISHALNRPAPYIVKYFGFELGAQTSISVDKDRYLVNGVHEPAKLQDVLDGFINKFVLCGSCKNPETEIIITKDNDLVRDCKACGKRTPMDLRHKLSSFILKNPPDSVSGSKKKKKAATASANVRGGGLSISDIAQGKSQNAPSDGTGSSTPQHHDEDEDELSRQIKAAASTLEDIEVKDDEWAVDMSEEAIRARAKELEVNSELTQLDEYGEWILEQAGEDKENLPSDVELYKKAAELDVLNDPKIGCVLAQCLFDEDIVNEIAEHNAFFTKILVTPEYEKNFMGGIERFLGLEHKDLIPLLPKILVQLYNNDIISEEEIMRFGTKSSKKFVPKEVSKKVRRAAKPFITFLETAESDDDEEDDE [W391F]: the “effect of a mutation on the interaction” value was “decreasing interaction”.

Another test covers variants of B2. The conditions noted are these: with if2g_yeast GCD11, P32481.
Chain of if2g_yeast GCD11, P32481 (P32481 whole entry): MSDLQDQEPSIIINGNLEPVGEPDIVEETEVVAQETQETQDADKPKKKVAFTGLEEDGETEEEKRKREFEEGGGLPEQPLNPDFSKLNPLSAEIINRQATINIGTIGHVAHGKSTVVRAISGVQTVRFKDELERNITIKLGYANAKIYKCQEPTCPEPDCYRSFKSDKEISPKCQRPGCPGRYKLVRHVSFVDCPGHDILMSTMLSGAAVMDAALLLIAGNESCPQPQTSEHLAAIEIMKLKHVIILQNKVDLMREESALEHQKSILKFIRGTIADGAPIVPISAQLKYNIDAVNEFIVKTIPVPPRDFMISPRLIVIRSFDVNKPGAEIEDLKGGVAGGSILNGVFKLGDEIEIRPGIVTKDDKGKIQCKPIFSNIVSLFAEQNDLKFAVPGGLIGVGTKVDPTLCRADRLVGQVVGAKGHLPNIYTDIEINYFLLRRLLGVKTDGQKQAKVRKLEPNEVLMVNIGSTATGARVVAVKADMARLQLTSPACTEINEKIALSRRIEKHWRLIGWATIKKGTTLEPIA
MSINICRDNHDPFYRYKMPPIQAKVEGRGNGIKTAVLNVADISHALNRPAPYIVKYFGFELGAQTSISVDKDRYLVNGVHEPAKLQDVLDGFINKFVLCGSCKNPETEIIITKDNDLVRDCKACGKRTPMDLRHKLSSFILKNPPDSVSGSKKKKKAATASANVRGGGLSISDIAQGKSQNAPSDGTGSSTPQHHDEDEDELSRQIKAAASTLEDIEVKDDEWAVDMSEEAIRARAKELEVNSELTQLDEYGEWILEQAGEDKENLPSDVELYKKAAELDVLNDPKIGCVLAQCLFDEDIVNEIAEHNAFFTKILVTPEYEKNFMGGIERFLGLEHKDLIPLLPKILVQLYNNDIISEEEIMRFGTKSSKKFVPKEVSKKVRRAAKPFITFLETAESDDDEEDDE [W391F]: the “effect of a mutation on the interaction” value was “decreasing interaction”.
